T1: hIL-11R (Homo sapiens, UniProt Q14626)
T1 sequence (Q14626 23-422): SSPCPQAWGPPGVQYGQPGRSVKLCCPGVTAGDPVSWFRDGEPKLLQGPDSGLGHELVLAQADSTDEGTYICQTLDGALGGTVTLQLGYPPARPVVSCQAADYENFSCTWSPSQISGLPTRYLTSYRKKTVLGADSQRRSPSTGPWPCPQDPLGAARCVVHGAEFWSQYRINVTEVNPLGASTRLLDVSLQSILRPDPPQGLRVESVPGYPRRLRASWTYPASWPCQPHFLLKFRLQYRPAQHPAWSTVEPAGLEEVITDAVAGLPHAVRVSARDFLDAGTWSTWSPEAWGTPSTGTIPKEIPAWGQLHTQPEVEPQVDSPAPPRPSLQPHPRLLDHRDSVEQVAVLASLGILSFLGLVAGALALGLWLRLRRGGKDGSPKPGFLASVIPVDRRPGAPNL


Molecular target: T1, hIL-11R
Assay: Alternate biolayer interferometry assay (AHC biosensors) ranking mAbs 16-32 against mAb5
Type: binding
Conditions: for ka / kd: AHC biosensors; for qualitative assessment: compared to mAb5 (comparator)
Text: A further series of antibodies were designed in which the residue at Kabat position 31 of the heavy chain was varied (mAbs 16-32). In this case an alternate biolayer interferometry assay was used to initially rank the antibodies compared to mAb5, the closest relative in sequence to mAbs 16-32. MAbs were loaded onto anti-human constant domain (AHC) biosensors (FortéBio) in 10×kinetics buffer consisting of PBS, 0.1% BSA, 0.02% polysorbate 20 (TWEEN™) for 120 s to achieve a spectral shift value of 0.8 to 1.2 nm. Association was carried out in the presence of 2-fold dilution series of hIL-11R and was allowed to proceed for 120 s. Dilution series started 10 nM. The dissociation in 10×kinetics buffer for 1200 s. Binding kinetic measurements were taken on an Octet RED96e instrument.

Molecule | ka | kd | potency compared to mAb5 by more detailed kinetic measurements (in words) | qualitative assessment
mAb21: anti-IL-11Rα antibody, human IgG4 (S228P), kappa; VH SEQ ID NO: 233, VL SEQ ID NO: 234 (antibody, V domains shown, IgG4 S228P kappa constant regions; mAb21 VH Chain; mAb21 VL Chain) VH: EVQLLESGGGLVQPGGSLRLSCAASGFTFSHYSMTWVRQAPGKGLEWVSSIVPYGDLTQYADSVKGRFTISRDNSKNTLYLQMNSLRAEDTAVYYCAKGPGWGSFDLWGRGTLVTVSS VL: DIQMTQSPSSLSASVGDRVTITCQASQDINNYLNWYQQKPGKAPKLLIYDASNLQTGVPSRFSGSGSGTDFTFTISSLQPEDIATYYCQQHESQSPTFGPGTKVDIK | 750000 M⁻¹ s⁻¹ | off-scale | further improved potency | improved/
mAb20: anti-IL-11Rα antibody, human IgG4 (S228P), kappa; VH SEQ ID NO: 231, VL SEQ ID NO: 232 (antibody, V domains shown, IgG4 S228P kappa constant regions; mAb20 VH Chain; mAb20 VL Chain) VH: EVQLLESGGGLVQPGGSLRLSCAASGFTFSGYSMTWVRQAPGKGLEWVSSIVPYGDLTQYADSVKGRFTISRDNSKNTLYLQMNSLRAEDTAVYYCAKGPGWGSFDLWGRGTLVTVSS VL: DIQMTQSPSSLSASVGDRVTITCQASQDINNYLNWYQQKPGKAPKLLIYDASNLQTGVPSRFSGSGSGTDFTFTISSLQPEDIATYYCQQHESQSPTFGPGTKVDIK |  |  |  | similar
mAb26: anti-IL-11Rα antibody, human IgG4 (S228P), kappa; VH SEQ ID NO: 243, VL SEQ ID NO: 244 (antibody, V domains shown, IgG4 S228P kappa constant regions; mAb23 VH Chain; mAb26 VL Chaim) VH: EVQLLESGGGLVQPGGSLRLSCAASGFTFSNYSMTWVRQAPGKGLEWVSSIVPYGDLTQYADSVKGRFTISRDNSKNTLYLQMNSLRAEDTAVYYCAKGPGWGSFDLWGRGTLVTVSS VL: DIQMTQSPSSLSASVGDRVTITCQASQDINNYLNWYQQKPGKAPKLLIYDASNLQTGVPSRFSGSGSGTDFTFTISSLQPEDIATYYCQQHESQSPTFGPGTKVDIK |  |  |  | decreased
mAb24: anti-IL-11Rα antibody, human IgG4 (S228P), kappa; VH SEQ ID NO: 239, VL SEQ ID NO: 240 (antibody, V domains shown, IgG4 S228P kappa constant regions; mAb24 VH Chain; mAb24 VL Chain) VH: EVQLLESGGGLVQPGGSLRLSCAASGFTFSLYSMTWVRQAPGKGLEWVSSIVPYGDLTQYADSVKGRFTISRDNSKNTLYLQMNSLRAEDTAVYYCAKGPGWGSFDLWGRGTLVTVSS VL: DIQMTQSPSSLSASVGDRVTITCQASQDINNYLNWYQQKPGKAPKLLIYDASNLQTGVPSRFSGSGSGTDFTFTISSLQPEDIATYYCQQHESQSPTFGPGTKVDIK |  |  |  | similar
mAb25: anti-IL-11Rα antibody, human IgG4 (S228P), kappa; VH SEQ ID NO: 241, VL SEQ ID NO: 242 (antibody, V domains shown, IgG4 S228P kappa constant regions; mAb25 VH Chain; mAb25 VL Chain) VH: EVQLLESGGGLVQPGGSLRLSCAASGFTFSMYSMTWVRQAPGKGLEWVSSIVPYGDLTQYADSVKGRFTISRDNSKNTLYLQMNSLRAEDTAVYYCAKGPGWGSFDLWGRGTLVTVSS VL: DIQMTQSPSSLSASVGDRVTITCQASQDINNYLNWYQQKPGKAPKLLIYDASNLQTGVPSRFSGSGSGTDFTFTISSLQPEDIATYYCQQHESQSPTFGPGTKVDIK |  |  |  | similar
mAb22: anti-IL-11Rα antibody, human IgG4 (S228P), kappa; VH SEQ ID NO: 235, VL SEQ ID NO: 236 (antibody, V domains shown, IgG4 S228P kappa constant regions; mAb22 VH Chain; mAb22 VL Chain) VH: EVQLLESGGGLVQPGGSLRLSCAASGFTFSIYSMTWVRQAPGKGLEWVSSIVPYGDLTQYADSVKGRFTISRDNSKNTLYLQMNSLRAEDTAVYYCAKGPGWGSFDLWGRGTLVTVSS VL: DIQMTQSPSSLSASVGDRVTITCQASQDINNYLNWYQQKPGKAPKLLIYDASNLQTGVPSRFSGSGSGTDFTFTISSLQPEDIATYYCQQHESQSPTFGPGTKVDIK |  |  |  | similar
mAb23: anti-IL-11Rα antibody, human IgG4 (S228P), kappa; VH SEQ ID NO: 237, VL SEQ ID NO: 238 (antibody, V domains shown, IgG4 S228P kappa constant regions; mAb23 VH Chain; mAb23 VL Chain) VH: EVQLLESGGGLVQPGGSLRLSCAASGFTFSKYSMTWVRQAPGKGLEWVSSIVPYGDLTQYADSVKGRFTISRDNSKNTLYLQMNSLRAEDTAVYYCAKGPGWGSFDLWGRGTLVTVSS VL: DIQMTQSPSSLSASVGDRVTITCQASQDINNYLNWYQQKPGKAPKLLIYDASNLQTGVPSRFSGSGSGTDFTFTISSLQPEDIATYYCQQHESQSPTFGPGTKVDIK | 720000 M⁻¹ s⁻¹ | off-scale | further improved potency | improved/

Other lines, results leading:

ka | kd | potency compared to mAb5 by more detailed kinetic measurements (in words) | qualitative assessment | Molecule
 |  |  | decreased | mAb30: anti-IL-11Rα antibody, human IgG4 (S228P), kappa; VH SEQ ID NO: 251, VL SEQ ID NO: 252 (antibody, V domains shown, IgG4 S228P kappa constant regions; mAb30 VH Chain; mAb30 VL Chain) VH: EVQLLESGGGLVQPGGSLRLSCAASGFTFSTYSMTWVRQAPGKGLEWVSSIVPYGDLTQYADSVKGRFTISRDNSKNTLYLQMNSLRAEDTAVYYCAKGPGWGSFDLWGRGTLVTVSS VL: DIQMTQSPSSLSASVGDRVTITCQASQDINNYLNWYQQKPGKAPKLLIYDASNLQTGVPSRFSGSGSGTDFTFTISSLQPEDIATYYCQQHESQSPTFGPGTKVDIK
 |  |  | decreased | mAb27: anti-IL-11Rα antibody, human IgG4 (S228P), kappa; VH SEQ ID NO: 245, VL SEQ ID NO: 246 (antibody, V domains shown, IgG4 S228P kappa constant regions; mAb27 VH Chain; mAb27 VL Chain) VH: EVQLLESGGGLVQPGGSLRLSCAASGFTFSPYSMTWVRQAPGKGLEWVSSIVPYGDLTQYADSVKGRFTISRDNSKNTLYLQMNSLRAEDTAVYYCAKGPGWGSFDLWGRGTLVTVSS VL: DIQMTQSPSSLSASVGDRVTITCQASQDINNYLNWYQQKPGKAPKLLIYDASNLQTGVPSRFSGSGSGTDFTFTISSLQPEDIATYYCQQHESQSPTFGPGTKVDIK
690000 M⁻¹ s⁻¹ | off-scale | further improved potency | improved/ | mAb31: anti-IL-11Rα antibody, human IgG4 (S228P), kappa; VH SEQ ID NO: 253, VL SEQ ID NO: 254 (antibody, V domains shown, IgG4 S228P kappa constant regions; mAb31 VH Chain; mAb31 VL Chain) VH: EVQLLESGGGLVQPGGSLRLSCAASGFTFSVYSMTWVRQAPGKGLEWVSSIVPYGDLTQYADSVKGRFTISRDNSKNTLYLQMNSLRAEDTAVYYCAKGPGWGSFDLWGRGTLVTVSS VL: DIQMTQSPSSLSASVGDRVTITCQASQDINNYLNWYQQKPGKAPKLLIYDASNLQTGVPSRFSGSGSGTDFTFTISSLQPEDIATYYCQQHESQSPTFGPGTKVDIK
610000 M⁻¹ s⁻¹ | 1.8e-05 s⁻¹ | further improved potency | improved/ | mAb29: anti-IL-11Rα antibody, human IgG4 (S228P), kappa; VH SEQ ID NO: 249, VL SEQ ID NO: 250 (antibody, V domains shown, IgG4 S228P kappa constant regions; mAb29 VH Chain; mAb29 VL Chain) VH: EVQLLESGGGLVQPGGSLRLSCAASGFTFSSYSMTWVRQAPGKGLEWVSSIVPYGDLTQYADSVKGRFTISRDNSKNTLYLQMNSLRAEDTAVYYCAKGPGWGSFDLWGRGTLVTVSS VL: DIQMTQSPSSLSASVGDRVTITCQASQDINNYLNWYQQKPGKAPKLLIYDASNLQTGVPSRFSGSGSGTDFTFTISSLQPEDIATYYCQQHESQSPTFGPGTKVDIK
 |  |  | similar | mAb28: anti-IL-11Rα antibody, human IgG4 (S228P), kappa; VH SEQ ID NO: 247, VL SEQ ID NO: 248 (antibody, V domains shown, IgG4 S228P kappa constant regions; mAb28 VH Chain; mAb28 VL Chain) VH: EVQLLESGGGLVQPGGSLRLSCAASGFTFSRYSMTWVRQAPGKGLEWVSSIVPYGDLTQYADSVKGRFTISRDNSKNTLYLQMNSLRAEDTAVYYCAKGPGWGSFDLWGRGTLVTVSS VL: DIQMTQSPSSLSASVGDRVTITCQASQDINNYLNWYQQKPGKAPKLLIYDASNLQTGVPSRFSGSGSGTDFTFTISSLQPEDIATYYCQQHESQSPTFGPGTKVDIK
